Assay results taken from US20130344509A1 (published 2013).

Experiments:
[1] = molecular target: T1, human TROP-2 (hTROP-2) protein endogenously expressed on the cell surface of human cancer cell lines (human, UniProt P09758 27-323); test: FACS on PK-59 cells, 0.1 µg antibody
T1 construct: on PK-59, BxPC-3 and other human cancer cell lines, or in human tissue sections; also called TACSTD2; GA733-1
T1 sequence: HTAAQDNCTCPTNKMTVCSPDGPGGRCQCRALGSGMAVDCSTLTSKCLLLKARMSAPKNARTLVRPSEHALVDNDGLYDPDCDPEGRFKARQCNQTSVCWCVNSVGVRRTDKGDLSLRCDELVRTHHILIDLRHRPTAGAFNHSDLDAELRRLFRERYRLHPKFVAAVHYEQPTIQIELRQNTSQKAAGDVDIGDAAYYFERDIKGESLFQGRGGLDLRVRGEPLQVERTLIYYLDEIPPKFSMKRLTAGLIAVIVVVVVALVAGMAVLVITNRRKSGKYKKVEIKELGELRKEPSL
Procedure: (§1) Cancer cells were removed from a culture dish by a trypsin treatment, and a cell suspension was then prepared (cell density: 2×10⁶ cells/mL). An anti-hTROP-2 monoclonal antibody (0.1 μg) was added to 100 μL of the cell suspension, and they were then reacted at 4° C. for 20 minutes. The reaction solution was washed with PBS, and it was then reacted with PE-labeled anti-mouse IgG (BD Biosciences Pharmingen) (0.1 μg) (at 4° C. for 30 minutes). Thereafter, the resultant was analyzed by FACSCalibur (Becton, Dickinson and Company).
(§2) Subsequently, the reactivity of the generated anti-hTROP-2 monoclonal antibodies with human cancer cell lines (in which an hTROP-2 protein was endogenously expressed on the cell surface) was examined by FACS analysis.

[2] = molecular target: T1, human TROP-2 (hTROP-2) protein …; test: FACS on BxPC-3 cells, 0.1 µg antibody
Procedure: as §1, §2

Table 9 peptide No. 26 = molecular target: T2, Table 9 peptide No. 26; test: PEPSCAN/CLIPS peptide ELISA, 1 µg/mL antibody
T2 sequence (peptide): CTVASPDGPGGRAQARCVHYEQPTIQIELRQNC

B1: anti-hTROP-2 monoclonal antibody clone K5-116-2-1 (antibody, V domains shown)
VH: QVQLQQPGAELVRPGASVKLSCKASGYTFTSYWITWVKQRPGQGLEWIGNIYPSDSYTNYNQKFRDKATLTVDKSSSTAYMQLSSPTSEDSAVYYCSALFDYWGQGTTLTVSS
VL: DILLTQSPAILSVSPGERVSFSCRASQSIGTSIHWYQQRTNGSPRLLIKYASESISGIPSRFSGSGSGTDFILSINSVESEDIADYYCQQSNSWPFTFGSGTKLEIK
notes: mouse IgG2a; hybridoma FERM BP-11253
[1]
  mean fluorescence intensity relative to PE-labeled anti-mouse IgG alone: 122 times
[2]
  mean fluorescence intensity relative to PE-labeled anti-mouse IgG alone: 121 times
Table 9 peptide No. 26
  binding of K5-116-2-1: 1220
